Results published in patent US20240228627A1, “GALECTIN-1-SPECIFIC MONOVALENT ANTIBODIES AND USES THEREOF” (INSTITUT NATIONAL DE LA RECHERCHE SCIENTIFIQUE, priority 2021, published 2024).

T1: mouse galectin-7 (mouse, UniProt O54974 1-136, limits assumed)
T1 construct: also called mouse GAL-7
T1 sequence (looked up): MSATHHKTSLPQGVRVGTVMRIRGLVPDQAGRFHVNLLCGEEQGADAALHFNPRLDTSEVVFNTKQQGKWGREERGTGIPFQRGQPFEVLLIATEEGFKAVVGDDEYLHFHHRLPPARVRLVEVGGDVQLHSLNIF

T2: human galectin-2 (human, UniProt P05162 1-132)
T2 construct: Recombinant, made in E. coli; also called Gal-2
T2 sequence: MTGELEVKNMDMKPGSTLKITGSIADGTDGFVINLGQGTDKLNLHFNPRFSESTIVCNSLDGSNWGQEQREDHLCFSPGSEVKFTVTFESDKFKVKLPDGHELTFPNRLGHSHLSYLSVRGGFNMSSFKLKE

T3: human galectin-13 (human, UniProt Q9UHV8 1-139)
T3 construct: Recombinant, made in E. coli; also called human GAL-13; Gal-13
T3 sequence: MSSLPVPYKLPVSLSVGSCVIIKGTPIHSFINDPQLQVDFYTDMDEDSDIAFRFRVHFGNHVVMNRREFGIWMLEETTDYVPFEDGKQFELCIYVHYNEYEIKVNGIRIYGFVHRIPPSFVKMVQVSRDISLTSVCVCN


Experiments:
[1] = molecular target: T4, GAL-1-Biotin (biotinylated human GAL-1) (Homo sapiens, UniProt P09382); test: non-adsorbed phage ELISA of VHH clones on GAL-1-Biotin; format: binding; conditions: HRP-conjugated anti-M13 antibody, TMB substrate; 282 clones tested
T4 construct: made in house; host or cells: E. coli BL21 (DE3), pET-22b(+)
T4 sequence (P09382 whole entry): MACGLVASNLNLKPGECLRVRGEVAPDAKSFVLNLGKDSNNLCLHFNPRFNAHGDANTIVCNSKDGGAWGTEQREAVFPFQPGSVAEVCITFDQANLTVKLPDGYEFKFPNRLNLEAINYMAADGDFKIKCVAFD
Description: Generation and production of single chain camelid antibodies. Galectin-specific single chain (VHH) camelid antibodies were obtained following in vitro screening of a non-immune humanized synthetic single domain antibodies (hsd2Ab) library that contains more than 3×10^9 clones expressed at the surface of M13 phage [Moutel et al., 2016]. The panning was carried out against immobilized recombinant human galectin-1 devoid of carbohydrate in its glycan binding site (GBS). Prior to the phage display selection, galectin-1-biotin and GST-Biotin were bound to streptavidin magnetic beads (Dynabeads® M-280 Streptavidin, Life Technologies) with a 50 nM final concentration of biotinylated protein for the first round and 10 nM final concentration of biotinylated protein for the second and third rounds. […] Following three-rounds of phage display, clones were picked randomly and analyzed by non-adsorbed phage ELISA using HRP-conjugated anti-M13 antibody (GE Healthcare) and a colorimetric substrate (TMB, tetramethylbenzidine, Thermo Fischer).
Following an initial pre-screen round of phage display carried out with GST-biotin to deplete the library from unspecific binders, unbound VHHs were incubated with GAL-1-Biotin beads. […] A total of 282 VHHs were then picked and analyzed by ELISA for galectin-1 binders.

[2] = molecular target: T5, recombinant human GAL-1 (rhGAL-1) (Homo sapiens, UniProt P09382); test: inhibition of galectin-1-induced apoptosis of Jurkat T cells (annexin V/propidium iodide flow cytometry); format: cell-based; conditions: rhGAL-1 2.25 μM, 4 h at 37° C., increasing concentrations of nanobody
T5 construct: made in house; host or cells: E. coli BL21 (DE3), pET-22b(+)
T5 sequence (P09382 whole entry): as above
Description: Briefly, Jurkat T cells were incubated with recombinant human GAL-1 (rhGAL-1; 2.25 μM) for 4h at 37° C. in presence of increasing concentrations of G1N1 and G1N2. Apoptosis was measured by flow cytometry using conventional annexin V/propidium iodide staining. Results represent data recorded on 5000 cells. Errors bars represent standard deviation.
Jurkat T cells were incubated with increasing concentrations of G1N1 pre-incubated with rhGAL-1 (2.25 μM) for 4 h at 37° C., after which apoptosis was measured by flow cytometry using Annexin V/propidium iodide staining. 5000 events were recorded. Errors bars represent standard deviation.
Apoptosis of human T cells. In vitro apoptosis assays were carried out using the standard in vitro human Jurkat T cell model system, fluorescein isothiocyanate (FITC)-labeled annexin V (Biolegend, San Diego, CA, USA) and propidium iodide (PI). Briefly, recombinant galectin-1 was pre-incubated for 1 h at 4° C. in serum free RPMI 1640 medium before addition to Jurkat cells. The mixture was incubated at 37° C. for 4 h. Cells were then washed once in PBS and once in binding buffer (0.01 M HEPES, 0.14 M NaCl, 2.5 mM CaCl2, pH 7.4). For staining, cells were incubated for 15 min with FITC-labeled annexin V in the dark at room temperature. The PI (0.25 μg/mL) stain was added to cells just before analysis by flow cytometry.

mouse galectin-7 = molecular target: T1, mouse galectin-7; test: microscale thermophoresis, Red-NHS labeled G1N1 (2 nM)
Description: (§1) FIG. 9A: Red-NHS labeled human GAL-1 (5 nM) incubated with G1N1 or alpha-lactose (a-lactose). […] In the same experiment, no binding was detected at 10 μM for human GAL-7, mouse GAL-7, human GAL-8 and human GAL-13. All experiments were performed in 20 mM Tris-HCl 150 mM NaCl and 0.1% F127. Binding affinities (Kd values) were determined from the fitted curves (three parameter dose-response curve) obtained from data of at least 3 independent experiments. For each value, 95% confidence intervals (Cl) are indicated.

[3] = molecular target: T6, recombinant human galectin-1 (human, UniProt P09382 2-135); test: microscale thermophoresis (MST), Red-NHS labeled human GAL-1 (5 nM) with G1N1 or alpha-lactose
T6 construct: Recombinant, made in E. coli BL21(DE3) from pET-22b(+); also called hGAL-1; GAL-1
T6 sequence (P09382 2-135 limits assumed): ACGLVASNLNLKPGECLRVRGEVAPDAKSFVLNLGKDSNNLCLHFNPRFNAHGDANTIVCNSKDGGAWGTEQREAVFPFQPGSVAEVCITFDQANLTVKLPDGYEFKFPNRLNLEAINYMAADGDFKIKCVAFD
Description: as §1

human galectin-2 = molecular target: T2, human galectin-2; test: ELISA, human galectin-2 immobilized at 1 µM, anti-His-tag detection [left panel (1 µM]
Description: (§2) Briefly, human galectins were immobilized at 1 and 5 μM for 16 h at 4° C. After a blocking step with PBS containing 10% (v/v) BSA (blocking buffer), increasing concentrations of G1N1 were added to each well and incubated for 1 h at room T° C. […] The colorimetric assay was carried out with 3,3′,5,5′-tetramethylbenzidine (Sigma-Aldrich, ON, Canada) according to the manufacturers recommendations.
(§3) ELISA assays. Recombinant human galectins were immobilized in 96-well plates at the indicated concentrations for 16 h at 4° C. After a blocking step with PBS containing 10% (v/v) bovine serum albumin (BSA) (blocking buffer), increasing concentrations of G1N1 were added to each well and incubated for 1 h at room temperature. […] The colorimetric assay was carried out with TMB (Sigma-Aldrich, MO, USA) according to the manufacturer's recommendations.

human galectin-7 = molecular target: T7, human galectin-7 (human, UniProt P47929 1-136); test: ELISA, human galectin-7 immobilized at 1 µM, anti-His-tag detection [left panel (1 µM]
T7 construct: Recombinant, made in E. coli; also called human GAL-7; Gal-7
T7 sequence (P47929 whole entry): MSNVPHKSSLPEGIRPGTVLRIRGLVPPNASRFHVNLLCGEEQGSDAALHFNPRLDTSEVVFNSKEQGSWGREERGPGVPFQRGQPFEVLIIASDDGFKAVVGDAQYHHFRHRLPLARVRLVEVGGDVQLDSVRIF
Description: as §2, §3

human galectin-13 = molecular target: T3, human galectin-13; test: ELISA, human galectin-13 immobilized at 1 µM, anti-His-tag detection [left panel (1 µM]
Description: as §2, §3

[4] = molecular target: T6, recombinant human galectin-1; test: microscale thermophoresis, Red-NHS labeled human GAL-1 (5 nM), G1N1 titrated; value in brackets is the 95% CI
Description: as §1

[5] = molecular target: T6, recombinant human galectin-1; test: microscale thermophoresis, Red-NHS labeled G1N1 (2 nM), human galectin-1 titrated; value in brackets is the 95% CI
Description: as §1, with “FIG.” for “FIG. 9A: Red-NHS labeled human GAL-1 (5 nM) incubated with G1N1 or alpha-lactose (a-lactose).”

[6] = molecular target: T8, recombinant mouse galectin-1 (mouse, UniProt P16045 2-135); test: microscale thermophoresis, Red-NHS labeled G1N1 (2 nM), mouse galectin-1 titrated; value in brackets is the 95% CI
T8 construct: also called mGAL-1
T8 sequence (P16045 2-135 limits assumed): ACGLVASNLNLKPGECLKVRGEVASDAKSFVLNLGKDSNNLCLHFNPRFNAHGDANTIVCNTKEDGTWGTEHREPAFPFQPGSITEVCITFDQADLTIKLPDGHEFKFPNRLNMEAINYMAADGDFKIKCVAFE

Molecule | binding in phage ELISA in the presence of GAL-1-Biotin [1] | inhibition of galectin-1-induced apoptosis of Jurkat T cells [2] | binding result (mouse galectin-7) | fold higher affinity than lactose for galectin-1 [3] [fold] | binding result (human galectin-2) | binding result (human galectin-7) | binding result (human galectin-13) | Kd [4] [nM] | Kd [5] [nM] | Kd [6] [nM]
G1N2: galectin-1-specific single-domain VHH nanobody, SEQ ID NO:9; weak-binding second clone from phage display (protein, G1N2 VHH) VHH: MAEVQLQASGGGFVQPGGSLRLSCAASGSTYFHTAMGWFRQAPGKEREFVSAISGFANPHRYYASSVKGRFTISRDNSKNTVYLQMNSLRAEDTATYYCANLISTNRGWLMGYWCQGTQVTVSS | weak binding | not | – | – | – | – | – | – | – | –
G1N1 nanobody (galectin-1-specific VHH, clone D06) (VHH, From a synthetic humanized nanobody library (hsd2Ab); For apoptosis, MST and ELISA it was made in E. coli from pHEN2 with 6xHis and cMyc tags; also called GAL-1-specific Nb #1; lead VHH clone G1N1; not shown: 6xHis and cMyc tags from vector pHEN2) VHH: EVQLQASGGGFVQPGGSLRLSCAASGSTFSEDAMGWFRQAPGKEREFVSAISGFANPHSYYADSVKGRFTISRDNSKNTVYLQMNSLRAEDTATYYCAASHKKTRAPAATFETYWGQGTQVTVSS | – | – | no binding (tested: 10 µM) | ~200 | no binding (tested: 10 µM) | no binding (tested: 10 µM) | no binding (tested: 10 µM) | 87 | 750 | 24.6
